The record followed here is patent US20210213134A1, “THIOL-BASED MULTIVALENT DRUG DELIVERY COMPOSITIONS” (ORPRO THERAPEUTICS, INC., priority 2018, published 2021).

Like-named read-outs stand apart in the source and are kept apart here.

Assay [1] deals with insulin (fully disulfide-bonded heterodimeric insulin). The assay is described as follows: cell-based or functional assay.
For assay [2] the target is unchanged. The assay is described as follows: cell-based or functional assay. This is another data set of the same source.

B1: reduced (active) C35STRX (enzyme)
chain: MVKQIESKTAFQEALDAAGDKLVVVDFSATWCGPSKMIKPFFHSLSEKYSNVIFLEVDVDDCQDVASECEVKCMPTFQFFKKGQKVGEFSGANKEKLEATINELV
modifications: active site Cys32 in the reduced state
In assay [1], B1 displayed a % reduction C35STRX (insulin heterodimer peak, RP-HPLC), 90 min of 97.7%; a column 'C35STRX' (taken as insulin heterodimer peak area, RP-HPLC), 0 min of 10600; a column 'C35STRX' (taken as insulin heterodimer peak area, RP-HPLC), 90 min of 243. In assay [2], this molecule showed a % reduction C35STRX (insulin heterodimer peak, RP-HPLC), 0 min of 0%; a % reduction C35STRX (insulin heterodimer peak, RP-HPLC), 90 min of 99.4%; a column 'C35STRX' (taken as insulin heterodimer peak area, RP-HPLC), 0 min of 8520; a column 'C35STRX' (taken as insulin heterodimer peak area, RP-HPLC), 90 min of 50.2.

B2: Azido-C35STRX (C35STRX with azido-PEG linkers on Lys residues, reduced) (enzyme)
chain: B1 chain
modifications: azido-PEG chains (NHS-PEG4-Azide) on Lys residues, average of 11 per molecule; active site Cys reduced with DTT
Take B2: in assay [1], the % reduction Azido-C35STRX (insulin heterodimer peak, RP-HPLC), 0 min is 0%; the % reduction Azido-C35STRX (insulin heterodimer peak, RP-HPLC), 90 min was found to be 33.1%; the column 'Azido-C35STRX' (taken as insulin heterodimer peak area, RP-HPLC), 0 min is 10200; the column 'Azido-C35STRX' (taken as insulin heterodimer peak area, RP-HPLC), 90 min came to 6840. In assay [2], this molecule displayed a % reduction Azido-C35STRX (insulin heterodimer peak, RP-HPLC), 90 min of 32.7%; an attenuation of the ability to reduce insulin disulfides vs. unconjugated monocysteinic thioredoxin of 70%; a column 'Azido-C35STRX' (taken as insulin heterodimer peak area, RP-HPLC), 0 min of 8960; a column 'Azido-C35STRX' (taken as insulin heterodimer peak area, RP-HPLC), 90 min of 6030.
